Data taken from the DeepSol protein solubility set.

Test: soluble on expression in E. coli; label from the status in PepcDB or PDB records

Sequence: MGSDKIHHHHHHYAVQPKDDKKENEALQTSTEEHLPLLTINGTNASSSFIVNSEALLGKEITITAPNGFTVTPTVIAANSGKQKVKVTLNSTKRLTEGKIILRSGDVRSYLKVKGYGTALPVKDIAASPAYKKGNDKEFTKAFTPNSKGYTIEFKIKTDDSEKSFYPYFVNEKGYGFKAYITSNEIGLFNAYKKEITNPATNGKAGGKGKFYNNDGQAHIYRFAITPDNRAFIYRDGIPVDSVRIIDYAPQPNFAEKVGKPVENLLKNPNFEGEFDINPETKLVSRVEGWDVVISDRWNSEQQILPEEIDNNQDLDNHVFEIRPYKWAAGWSDGILMQVVDVVPNENYTLSALLKGGIAKKEGKLTGKMIIEEVQDPEKKVITEIASDNWETYSMDYTTSAECNQIRVSFTVGRGGWGNDIGAVRVDNAKLTGTSRTYSPKFGFIDNTADVEYFTIDESGAYAPAQPEITINIED
- soluble on expression in E. coli: not soluble

Sequence: MAIKDAIEKIVSYFDADEVTDHEDVAKERPVKVQKTEQTPSQQQRKPERPQETVPPRRQHIKSDVQETQVLRSLSLSRSQVNQGSQQMNTTKTTIAIKYPKKYEDAQEIVELLIENECVLIDFQYMLEAQARRCLDFIDGASKVLTGNLQKVGSSMYLLTPINVVVDIEEIGLSHGNQESTFDFDMKRRLEHHHHHH
- soluble on expression in E. coli: not soluble

Sequence: MAHHHHHHMTTLTHSRPRPLHLPLSPPHTRKNDGAAPAPAHTHPSHFLSVAITVTHTDFVTGTIMKSFFSNITSKLKTRRKPLAPCDCSDFIEAAPAQPSLTHLRGVVAARHFHGAPPPASDVENARRDFVVRSTVFDLQHRCGAGGRCTCAGAPACRFPQCFTMRPVTKGAEVLAERQVYEVEDAPTPEIRALVALAAEEKLEEVVKGIQHTVDAHLKAAARGRGLEARFIIDGSDGHEFTPATPKTGTGSIHAGANPLREDEDLREEITSLYLWRAALLVNLRRDEQAVSSLLNLAFAVEQKDRTRLYGAAAAWAVLNDMEIIYYRSLVKSCKPFDQAVHFATERPLLLARVFEATRGDDYHTDYCTHVVFSKEVTATVTRAQTAQMHGDFTEDPMRSLCLPLTMPYYRFRVDEEFWKRFYALLCMPPVPPPTQEEAKAQAIDPAAELGLTPNYILDAVGRSMMLHHLVTFADVRDKEIDTGVVVDRVKEMKLLDLQPHPSDYTPVLTTSEMHVAVTRMKELLVVVRSFEAKEQERLSGAAAAQRLQRAQSGNDAANPSAAPPAPSPIEK
- soluble on expression in E. coli: not soluble

Sequence: MNIAAESSAKPVWGPPNFCAAAARMQDVRVLMHPKTGRAFRSPVEPGSGWPGDPATPQTPVAADAAQVSALAGGAGSICELNALISVCRACPRLVSWREEVAVVKRRAFADQPYWGRPVPGWGSKRPRLLILGLAPAAHGANRTGRMFTGDRSGDQLYAALHRAGLVNSPVSVDAADGLRANRIRITAPVRCAPPGNSPTPAERLTCSPWLNAEWRLVSDHIRAIVALGGFAWQVALRLAGASGTPKPRFGHGVVTELGAGVRLLGCYHPSQQNMFTGRLTPTMLDDIFREAKKLAGIE
- soluble on expression in E. coli: soluble

Sequence: GMTGLSQSQASPMQIQPGNAAFNPWTDAALDTIRDVNQALTLYAEMRVVPAHHDAFLAAIDTVSAKLRVLPGFLSLALKQMSGDSTMVKNYPETYKGVLATAYLDGVAAGTQPYFYNLFVRFADGRAARAAGFEALFETHIHPLLHAMAPRGGDGPELLAYRAVLQSVVAGDRHAIYRGAEEIRSFLRRPVELPERETVTVENHVMVPEDKHAAWEPQVAILLQVAQDTFEPQDEPSGVGLPGARDNRYYRKALSTEILRNAHADGGLRAYIMHGVWESVWDHENSHLDPRFLAAAGPVGAAAVVGPVEPFYLTRRLVVAD
- soluble on expression in E. coli: soluble

Sequence: MAHHHHHHMNRWRPFSKVRHFSGLTKLTNVREHQDEIISCIEKVKVVNPLVHCITNRVTTEKVANSLLAFGSSPAMIDNPKEVEQFAEIASCTYFNLGLHTSQVENIHVLDKMRQEKKKEEFILVIDPIAVGATQYRTNLIKDILVKCKPNVIKGNVAEIFYLDKGEFFGKGVDSNSSSSHTPNDIIASARNVALKYNCAVVVTSKADIIVSPCSKFVAQINCDLKILTKITGSGCSVGALCAAATSVIPQNPFIACTAATLIYKLAAFKAYQKETGPGTLSHQIIDNIYFYSNHPHFMNLQLVDVYAVS
- soluble on expression in E. coli: soluble

Sequence: MPTLIVLIGPTGVGKTELSLRLAENFHTSIVSADSRQLYAELKIGTAAPTPDQLKRVPHYLVGTLHLTDYYSAAQYEQEAMEILHQLFTEHEVVVLTGGSMMYVDAICKGIDDIPTVDAETRQVMLQKYEEEGLEQLCAELRLLDPDYYRIVDLKNPKRVIHALEICYMTGKTYTSFRTQQKKERPFRILKIGLTRDREELYDRINRRVDQMMEEGLLDEVRSVLSYRHLNSLNTVGYKELFKYLDGEWELPFAIEKIKQNSRIYSRKQMTWFKRDEEIRWFHPEQETEILEYLRLQNLTHLPSLDTFLEHHHHHH
- soluble on expression in E. coli: soluble

Sequence: MPQFSNRRRVPHSAQQMFDLVADVERYPQFVPLCKALKIRERIQQPDGNEVVIADMTVSFKLVQETFTSRVTLDRANLKILVEYLKGPFSNLENRWTFAAKTERACEVGFFIAYEFKSRMLATLMGAMFDTAFHRFAEAFETRADQIYGTGPKLSRALEHHHHHH
- soluble on expression in E. coli: not soluble

Sequence: MSEDNFDDEFDGSLPSGPRHPMARRFRGYLPVVVDVETGGFNSATDALLEIAATTVGMDEKGFLFPEHTYFFRIEPFEGANIEPAALEFTGIKLDHPLRMAVQEEAALTEIFRGIRKALKANGCKRAILVGHNSSFDLGFLNAAVARTGIKRNPFHPFSSFDTATLAGLAYGQTVLAKACQAAGMEFDNREAHSARYDTEKTAELFCGIVNRWKEMGGWMDDDD
- soluble on expression in E. coli: soluble

Sequence: MSLESSQSLELLKNKIEQYALNELSNYTEGKIQVTADNIDPRLNLKVCNDNKLEVFNPYQTPMLNTSTMGIKCLEENNHWTLYIPVKITIFKSVLVAKRALLKGTKISNSDIYQTELDVQKLKQGYFTDSKELIGLVCKHDITPNSPLNPFNIELAKLVHKGEQVSIIAAHDNLTVSMDGVAMDEGALGDSVKVKNLSSKRIIEAQVTGKKTVKVTFEGHHHHHH
- soluble on expression in E. coli: soluble

Sequence: MGSDKIHHHHHHMETLELQGAKLRYHQVGQGPVLIFIPGANGTGNIFLPLAEQLKDHFTVVAVDRRDYGESELTEPLPDSASNPDSDYRVKRDAQDIAELAKSLSDEPVYILGSSSGSIVAMHVLKDYPEVVKKIAFHEPPINTFLPDSTYWKDKNDDIVHQILTEGLEKGMKTFGETLNIAPIDAKMMSQPADTEEGRIEQYKRTMFWSEFEIRQYTHSDITLDDFTKYSDKITLLNGTDSRGSFPQDVNFYINKETGIPIVDIPGGHLGYIQKPEGFADVLLNMWG
- soluble on expression in E. coli: not soluble

Sequence: MFQIIMTSTPKYSIILPTYNEKENLPICIWLIENYLKEVSHEVIIVDDASPDGTQGIAKLLQKEYGDDKILIKPRVGKLGLGTAYSHGLSFARGEFIILMDADLSHHPKFIPEMIALQHKYKLDIVTGTRYKDGGGVSGWDLKRKTISKGANFLAQFLLNPGVSDLTGSFRLYKRDILSKLIAESVSKGYVFQMEMMFRAKKSGYRIGEVPISFVDRFFGESKLGSQEIVDYAKGLLYLFAFVW
- soluble on expression in E. coli: not soluble

Sequence: MPDEKDKHEGTWLQWPHEYTYGEEYKKEVEPIWVKMASALTEGEKVHIVAYDQEEKERINNLLTDEGLNMEKIDFFIAPTDDVWARDSGPIFVYDSNKNLKILDPAFNGWGKKTPYKNDAQIRKNVSKQSGIERVDWGKFVLEGGAIELDSNGTALLTRSAVTNKNRNPDLSEKEIEKYISDLGVSNFIWLDGVPNLDITDFHIDGFAKFHNKSTIVTMKEDDLAEWGLSNKDMDTLLDAKNASGQKYKYEYLPLSKEKVALENGKTLDYKGSYINYYIGNTVVLVPNYNDPNDKIANDTIQKLYPDRKVVGIDVRELYKNGGMIHCVTQQQPIALK
- soluble on expression in E. coli: not soluble

Sequence: METSIFDDVETRIDNNEIIAQQHAEDLFELYLKIQNAEKDSVIDIRKEASADHEEMLCELRNDLSQVMKMGMVNLSMQIIAQERNNRRKVNQHIINIKSKTEEIDKFFQRAISVLGAPPGYPAKKEEKAKTKNYLIQFGEVLLSISTMVTNLEQSLACYELKEVLMNGMISQIRTQISDFNKVIPNFKRILNSENQEIDPDNYEKFVDMKKRLFAMVNCLHLISEKRGEMNRLIEEKMNLSMPQFQNLQISNGT
- soluble on expression in E. coli: not soluble

Sequence: MSGQKCSAYTDTMGTCTICSIFAPHSQLFICRHEGCKYALKQSSSIMTPAMFYRKEKVICGKCAFVGPHKMHKDFVSKAQKLAFKIASQEIGVRLQMEFDVLSELHEDNPVDYAIILSGHEKLEKIDVIKYLSQSKTIVEWNLRQRQLNEAIQFIKFNRIEGYHRVKELANKMLDAFYDANATIERDSENGSPQSDDDHLSDVSHECQGSSRSSISSKKSSIHSTSTTGTVILNQNPDNALSCSEVSGGDELKNKSSTNEGYTESMTETVITISRRFEMCIRRESPEDAVSRIADYLDDRIESNDQKKAIAEYMERNYSIKWPRQFQ
- soluble on expression in E. coli: not soluble

Sequence: MSLKTIHITHPHHLIKEEQAKSVMALGYFDGVHLGHQKVIGTAKQIAEEKGLTLAVMTFHPHPSHVLGRDKEPKDLITPLEDKINQIEQLGTEVLYVVKFNEVFASLSPKQFIDQYIIGLNVQHAVAGFDFTYGKYGKGTMKTMPDDLDGKAGCTMVEKLTEQDKKISSSYIRTALQNGDVELANVLLGQPYFIKGIVIHGDKRGRTIGFPTANVGLNNSYIVPPTGVYAVKAEVNGEVYNGVCNIGYKPTFYEKRPEQPSIEVNLFDFNQEVYGAAIKIEWYKRIRSERKFNGIKELTEQIEKDKQEAIRYFSNLRKEGGSHHHHHH
- soluble on expression in E. coli: soluble

Sequence: MSLVRQEPLRPDQPLEMGFEYRSAVRTVRTDSTGLIIPAPTARFSLNESPWRSCKGGMMAGMSSLVRIVNAGVPGSQDRVDVVLRDGVVASVGPAGTVSASDGTMQTKAHTTSLAYATNAIASGGVSIPTSASAPADETTIDADGLWVIPGLWDCHTHFTQWVKTLGRLDLINARSAAEAMDMLRRHLDERRAADTLDPDAFVVGMRFRHSLWADDEQPTLAAIDAVTGEQPVALSSADMHCGWVNSAAARRLGVHVDESGLVGELEWFNAYTAFDKAPGAAEETDRLLREAEQDAASKGVVGIRDYEMAENIDTWINRFAAGINGLRVDAGVYPERLRAAIDAGWHTGKELPGSAGLGHVGAMKLISDGSLNTRSAYCSTPYSGIEPLTYGTLSYTPQQIEDYMRLATEHGFDIACHAIGDEANTIALNAVAATHAHGSIEHAQMLKPVDIPRFAELGLTASIQPQHAMDDRDVITRFWANPAGIPYPFRALHDAGTTLRMGSDAPVAPLDPWLAISAAVLGTESSDREPFQPEQCLDVHTSLAASTATGRDRLASGDPADVVLLDADPYAADTPEAMRAMPQHVVMTLLCGERTYEGHHHHHH
- soluble on expression in E. coli: not soluble

Sequence: MSKRILFIVGSFSEGSFNRQLAKKAETIIGDRAQVSYLSYDRVPFFNQDLETSVHPEVAHAREEVQEADAIWIFSPVYNYAIPGPVKNLLDWLSRSLDLSDPTGPSVLQDKIVTVSSVANGASPEEVFEDYRSLLPFIRMHLVDQLTGVPINSEAWSTGILKVSAEKLAELSAQADALLSAIENLEHHHHHH
- soluble on expression in E. coli: soluble

Sequence: MSLELKPKRFLVLDDQLVLRKLISRQASFFTRFAVEIDEFSDPAEALRSIAEGGYHLVITDIGMPGMNGIDFIKNVARLGYQSALLIISGYDGKTLQTIADMSVNLGLSCTRFLSKPYSAEAFVAALNGIFSEMERSEAPAVGDVAQLLADLGGETFRMQFAPVRSLHGRRLAGFTLRTLQLPDGRRLAFDRLLALLAGRRMASAALLEIVVERTARLLQDMRLSAGIDDCRVNIRIDEACLSADNVFDRCFMALQQSEVSPACLGFALADGLNRRSDALCFENIAKVKYLGFRLLADGFGQGSLTVSNLFRLPFDQVNAPLEALQWMKILQGEDPGAFRLLRSFGLGQAPVCATGLDDEESLALAQALGCGLGEGDAVSLAVPEEELLQEMAAVPEGEGHHHHHH
- soluble on expression in E. coli: soluble

Sequence: MKVMNIIHDSVVDGEGLRTVVFFAGCPHRCVGCHNPKSWNICNGTEMTVEEIVKEIASNPLTDVTFSSGDPFFQAAEVKKVAKIGKDLKKNLWMYTGYTLEEIQSSQNNDMIELLHYGDVLVDGRFEIEEKDLTLPFRGSSNQRIIRLKELEHHHHHH
- soluble on expression in E. coli: not soluble
